# Measured values as given in the supplement of paper PMC9112550, “Optimization of the antimicrobial peptide Bac7 by deep mutational scanning” (BMC Biology, 2022).
# System: Escherichia coli TOP10
# Test: shrunken log2 fold change of peptide-encoding DNA abundance (4.5 h post-induction vs induction); higher = less antimicrobial activity (less host growth inhibition)
# Settings: time post-induction: 4.5 h; library: site-saturation at positions 5, 18, 19, 20
# 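Note: peptides expressed intracellularly from a pBAD plasmid library in pooled LB shake-flask culture, induced with 0.3% L-arabinose, DNA abundance read by NGS, three biological replicates, DESeq2 with apeglm shrinkage.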
row,Sequence,shrunken log2 fold change
1,RRIRDRPPRLPRPRPRPKAEPRP,-0.0211
2,RRIRERPPRLPRPRPRPIMLPRP,-0.227
3,RRIRQRPPRLPRPRPRPGDLPRP,0.01
4,RRIRKRPPRLPRPRPRPVNWPRP,0.192
5,RRIRERPPRLPRPRPRPTPWPRP,0.108
6,RRIRCRPPRLPRPRPRPEKHPRP,0.00607
7,RRIRVRPPRLPRPRPRPGHNPRP,-0.131
8,RRIRMRPPRLPRPRPRPESKPRP,2.93
9,RRIRKRPPRLPRPRPRPHKSPRP,0.0371
10,RRIRHRPPRLPRPRPRPETPPRP,0.561
11,RRIRPRPPRLPRPRPRPENMPRP,-0.395
12,RRIRMRPPRLPRPRPRPMKVPRP,0.0398
13,RRIRGRPPRLPRPRPRPVEDPRP,0.0393
14,RRIRMRPPRLPRPRPRPFHYPRP,-0.63
15,RRIRKRPPRLPRPRPRPRQVPRP,0.029
16,RRIRDRPPRLPRPRPRPPQYPRP,-0.0943
17,RRIRKRPPRLPRPRPRPMKKPRP,0.172
18,RRIRGRPPRLPRPRPRPESVPRP,1.42
19,RRIRCRPPRLPRPRPRPKAWPRP,0.132
20,RRIRARPPRLPRPRPRPTQTPRP,0.69
21,RRIRDRPPRLPRPRPRPGFPPRP,0.0346
22,RRIRDRPPRLPRPRPRPRIFPRP,-0.0459
23,RRIRWRPPRLPRPRPRPNLLPRP,0.0966
24,RRIRRRPPRLPRPRPRPKPCPRP,0.126
25,RRIRMRPPRLPRPRPRPAINPRP,0.321

row,Sequence,shrunken log2 fold change
1,RRIRNRPPRLPRPRPRPSTNPRP,-0.337
2,RRIRERPPRLPRPRPRPTCDPRP,0.158
3,RRIRRRPPRLPRPRPRPSFPPRP,0.0188
4,RRIRSRPPRLPRPRPRPHATPRP,0.378
5,RRIRMRPPRLPRPRPRPINQPRP,0.257
6,RRIRERPPRLPRPRPRPCTCPRP,-0.00884
7,RRIRGRPPRLPRPRPRPQLGPRP,0.649
8,RRIRWRPPRLPRPRPRPLIWPRP,0.515
9,RRIRCRPPRLPRPRPRPHRGPRP,0.0133
10,RRIRQRPPRLPRPRPRPPFYPRP,-0.0349
11,RRIRCRPPRLPRPRPRPYWDPRP,-1.1
12,RRIRCRPPRLPRPRPRPTMVPRP,-0.33
13,RRIRERPPRLPRPRPRPRLDPRP,0.0479
14,RRIRIRPPRLPRPRPRPHQKPRP,-0.0756
15,RRIRWRPPRLPRPRPRPFIAPRP,-0.291
16,RRIRNRPPRLPRPRPRPLMQPRP,-0.0301
17,RRIRMRPPRLPRPRPRPEAGPRP,2.36
18,RRIRMRPPRLPRPRPRPTQRPRP,0.968
19,RRIRKRPPRLPRPRPRPAEFPRP,0.0773
20,RRIRVRPPRLPRPRPRPASSPRP,-0.122
21,RRIRWRPPRLPRPRPRPNMMPRP,0.00802
22,RRIRYRPPRLPRPRPRPELVPRP,0.25
23,RRIRTRPPRLPRPRPRPRDVPRP,0.369
24,RRIRHRPPRLPRPRPRPGHEPRP,-0.133
25,RRIRWRPPRLPRPRPRPYNDPRP,-0.194

row,Sequence,shrunken log2 fold change
1,RRIRPRPPRLPRPRPRPTQIPRP,0.13
2,RRIRTRPPRLPRPRPRPTSNPRP,-0.43
3,RRIRWRPPRLPRPRPRPPRDPRP,0.661
4,RRIRQRPPRLPRPRPRPGRHPRP,0.0349
5,RRIRARPPRLPRPRPRPQTMPRP,0.108
6,RRIRRRPPRLPRPRPRPPVAPRP,0.769
7,RRIRFRPPRLPRPRPRPQCCPRP,-0.067
8,RRIRDRPPRLPRPRPRPLMVPRP,-0.186
9,RRIRWRPPRLPRPRPRPDTGPRP,-0.373
10,RRIRNRPPRLPRPRPRPSWQPRP,-0.0148
11,RRIRTRPPRLPRPRPRPLKLPRP,-0.251
12,RRIRTRPPRLPRPRPRPDLVPRP,-0.0188
13,RRIRNRPPRLPRPRPRPYKLPRP,-0.66
14,RRIRRRPPRLPRPRPRPCIWPRP,0.0382
15,RRIRWRPPRLPRPRPRPAKSPRP,0.228
16,RRIRYRPPRLPRPRPRPMSAPRP,-0.0208
17,RRIRRRPPRLPRPRPRPCMDPRP,-0.229
18,RRIRPRPPRLPRPRPRPAPKPRP,0.702
19,RRIRQRPPRLPRPRPRPKVVPRP,-0.0141
20,RRIRRRPPRLPRPRPRPMICPRP,-0.0373
21,RRIRTRPPRLPRPRPRPDSRPRP,-0.00822
22,RRIRCRPPRLPRPRPRPHHEPRP,-0.24
23,RRIRQRPPRLPRPRPRPEQFPRP,0.0588
24,RRIRFRPPRLPRPRPRPVWLPRP,-0.0732
25,RRIRWRPPRLPRPRPRPCRCPRP,-0.0961
